According to paper PMC6412877, “Novel Site-Specific Fatty Chain-Modified GLP-1 Receptor Agonist with Potent Antidiabetic Effects” (Molecules, 2019):

The binders below were run against Glucagon-like peptide-1 receptor extracellular domain (assay: SPR; Biacore 8K, according to the user's manual; who was immobilised and the conditions are not stated).
FFYSSPSAYLET [PEP01] was tested, and the Kd was 740 nM. FTSEGTSSYLETGGPSSGAPPPS [PEP10] gave a Kd of 3000 nM. YSHAYLEETQRFGGPSSGAPPPS [PEP11] gave a Kd of 1250 nM. Work on EFIATAWLVKQTGGPSSGAPPPS [PEP12] yielded a Kd of 1090 nM. With KEYSSPAATQRF [PEP02] the Kd was 1050 nM. For KQYSSPTAWLVG [PEP03], the Kd was 1750 nM. Binder FTSEGTSSYLET [PEP04] has a Kd of 3990 nM. YSHAYLEETQRF [PEP05] was tested, and the Kd was 2210 nM. EFIATAWLVKQT [PEP06] showed a Kd of 2590 nM. FFYSSPSAYLETGGPSSGAPPPS [PEP07] was tested, and the Kd was 24 nM. Work on KEYSSPAATQRFGGPSSGAPPPS [PEP08] yielded a Kd of 151 nM.
